Experimental data: paper PMC4698670, “Fortilin potentiates the peroxidase activity of Peroxiredoxin-1 and protects against alcohol-induced liver damage in mice” (Scientific Reports, 2016)

Biological target: T1, recombinant human PRX1 (Sigma-Aldrich) (human, UniProt Q06830 1-199)
T1 construct: recombinant human peroxiredoxin-1, bought; construct not described; also called recombinant PRX1; source: bought: Sigma-Aldrich
T1 sequence (looked up): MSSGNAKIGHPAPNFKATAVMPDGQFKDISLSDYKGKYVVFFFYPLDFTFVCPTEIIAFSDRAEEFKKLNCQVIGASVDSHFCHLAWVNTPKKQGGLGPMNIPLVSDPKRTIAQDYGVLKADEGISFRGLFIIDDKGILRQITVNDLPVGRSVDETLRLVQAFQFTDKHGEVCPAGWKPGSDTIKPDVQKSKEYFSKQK
Assay: BLI; BLItz; biotinylated fortilin immobilized on streptavidin biosensors (1 μg/mL, 25 mM Tris, 150 mM NaCl, 0.1% Tween-20), then PBS; recombinant PRX1 in solution, 180 s association, 300 s dissociation in PBS; three independent experiments
Conditions: both partners purified

B1: recombinant human fortilin tagged with the Strep-tag II (natural protein, UniProt P13693 1-172, looked up)
chain: MIIYRDLISHDEMFSDIYKIREIADGLCLEVEGKMVSRTEGNIDDSLIGGNASAEGPEGEGTESTVITGVDIVMNHHLQETSFTKEAYKKYIKDYMKSIKGKLEEQRPERVKPFMTGAAEQIKHILANFKNYQFFIGENMNPDGMVALLDYREDGVTPYMIFFKDGLEMEKC
modifications: biotin (biotinylated for the biolayer interferometry)
notes: human fortilin (TCTP) cDNA in the pESG-IBA5 vector; Biotinylated only for the biolayer interferometry; used without biotin in the activity and phosphorylation assays; also called recombinant fortilin; wild-type fortilin; source: 293T cells stably expressing it, purified (Strep-Tactin-Superflow resin)
B1 was tested, and the Kd was 125 nM.
